Measured values published in patent US20150218277A1 (REGENTS OF THE UNIVERSITY OF MICHIGAN, published 2015).
Ends that are not written are not given here.

Target: Heat Shock Protein 90 (HSP90), endogenous, in human cell lines (human, UniProt P07900 2-732)
Test: cell-based or functional assay

GVGSPYVS [Peptide 4 GVGSPYVS] and DEAYVMAGVGSPYVSRLLGIC [Peptide 6 DEAYVMAGVGSPYVSRLLGIC] are the same in “clonogenic survival of UMSCC1 cells (Survival Fraction), peptide delivered with Chariot” value: 1 survival fraction for the first, 1 survival fraction for the second.

Going from SVGNPHVC [Peptide 7 SVGNPHVC] to NHVPSDVC (not fully specified) [Peptide 8 NHVPSDVC (scrambled peptide)], the “clonogenic survival of UMSCC1 cells (Survival Fraction), peptide delivered with Chariot” value rises from 0.97 survival fraction to 1 survival fraction.

Compared with SVDNPHVC (not fully specified) [Peptide 2 SVDNPHVC (Disruptin)], RLLGIC [Peptide 3 RLLGIC] is higher in “clonogenic survival of UMSCC1 cells (Survival Fraction), peptide delivered with Chariot” value: 0.77 survival fraction for the first, 0.85 survival fraction for the second.

For DEAYVMA [Peptide 1 DEAYVMA], the “clonogenic survival of UMSCC1 cells (Survival Fraction), peptide delivered with Chariot” value was 0.93 survival fraction.
